Measured values reported in patent publication US10822423 (TRUSTEES OF DARTMOUTH COLLEGE, dated 2020).

T1: purified recombinant human CD40L (human, UniProt P29965 113-261, limits assumed)
T1 construct: also called hCD40L; CD154
T1 sequence (looked up): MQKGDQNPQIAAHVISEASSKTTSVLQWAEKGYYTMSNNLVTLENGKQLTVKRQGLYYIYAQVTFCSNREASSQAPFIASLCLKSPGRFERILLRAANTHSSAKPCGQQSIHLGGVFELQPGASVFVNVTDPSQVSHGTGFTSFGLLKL

B1: Antibody A (anti-human CD40L IgG1 antibody with V215A and E269R mutations in the human IgG1 constant region) (antibody, V domains shown)
VH: EVQLQESGPGLVKPSETLSLTCTVSGDSITNGFWIWIRKPPGNKLEYMGYISYSGSTYYNPSLKSRISISRDTSKNQFSLKLSSVTAADTGVYYCACRSYGRTPYYFDFWGQGTTLTVSS
VL: DIVMTQSPSFLSASVGDRVTITCKASQNVITAVAWYQQKPGKSPKLLIYSASNRYTGVPDRFSGSGSGTDFTLTISSLQPEDFADYFCQQYNSYPYTFGGGTKLEIK
notes: Human IgG1 with V215A and E269R in the constant region, expressed in HEK-293 Freestyle cells; also called anti-hCD40L variant
B2: Antibody B (anti-human CD40L IgG1 antibody with V215A, E269R and K322A mutations in the human IgG1 constant region) (antibody, V domains shown)
VH: B1 VH
VL: B1 VL
notes: Human IgG1 with V215A, E269R and K322A in the constant region, expressed in HEK-293 Freestyle cells; also called anti-hCD40L variant

Molecular target: T1, purified recombinant human CD40L
Assay: ELISA: recombinant human CD40L coated, detected with mouse anti-human IgG then HRP goat anti-mouse IgG
Experimental: Both antibodies were purified by conventional methods and the binding activity of both recombinantly expressed antibodies to hCD40L was assayed. To measure anti-hCD40L variants binding to hCD40L, purified recombinant human CD40L was bound to a 96-well ELISA-grade plate. After blocking, anti-hCD40L variants were added followed by mouse anti-human IgG then horseradish peroxidase-labeled goat anti-mouse IgG. TMB color development was then quantitated at 450 nm by an ELISA reader.

Binder | binding result
B1 | binds
B2 | binds
